Assay results published in patent publication US20240174727A1, “LONG-ACTING NATRIURETIC PEPTIDES AND USES THEREOF” (Eli Lilly and Company, priority 2022, published 2024).
Substitutions are numbered along the chain they refer to.

B1: Example 97 (peptide)
peptide: SXRRSSCFGGRIDRIGHYSGLGCPSFRHGGPPSXKPPPK
modifications: HOOC-(CH2)18-CO-(γGlu)-EKEKEKG-(AEEA)6-S-4Pal-RRSS[CFGGRIDRIGHYSGLGC]PSFRHGGPPS-Aib-KPPPK-NH2; thioacetal linkage between the bracketed Cys
B2: Example 77 (peptide)
peptide: EKXRSSCFGGRIDRIGHYSGLGCPSFRHGGKSSGAPPPS
modifications: HOOC-(CH2)18-CO-(γGlu)-EKEKEKG-PEG12-EK-βAla-RSS[CFGGRIDRIGHYSGLGC]PSFRHGGKSSGAPPPS-NH2; thioacetal linkage between the bracketed Cys
B3: Example 78 (peptide)
peptide: B2 peptide
modifications: HOOC-(CH2)18-CO-(γGlu)-EKEKEKG-PEG24-EK-βAla-RSS[CFGGRIDRIGHYSGLGC]PSFRHGGKSSGAPPPS-NH2; thioacetal linkage between the bracketed Cys
B4: Example 47 (peptide)
peptide: XEKEKEKGRSSCFGGKIDRIGHYSGLGCPSFRHKGPSSGAPPPS
modifications: HOOC-(CH2)18-CO-(γGlu)-EKEKEKGRSS[CFGGKIDRIGHYSGLGC]PSFRHKGPSSGAPPPS-NH2; disulfide linkage between the bracketed Cys
B5: Example 23 (peptide)
peptide: XEKEKEKGSXRRSSCFGGRIDRIGAQSGLGCPSFRXGGPSSGAPPPS
modifications: HOOC-(CH2)18-CO-(γGlu)-EKEKEKGS-4Pal-RRSS[CFGGRIDRIGAQSGLGC]PSFR-4Pal-GGPSSGAPPPS-NH2; disulfide linkage between the bracketed Cys
B6: Example 36 (peptide)
peptide: B5 peptide with R19K, A25H, X36H
modifications: HOOC-(CH2)18-CO-(γGlu)-EKEKEKGS-4Pal-RRSS[CFGGKIDRIGHQSGLGC]PSFRHGGPSSGAPPPS-NH2; disulfide linkage between the bracketed Cys
B7: Example 35 (peptide)
peptide: B5 peptide with R11K, A25H, X36H
modifications: HOOC-(CH2)18-CO-(γGlu)-EKEKEKGS-4Pal-KRSS[CFGGRIDRIGHQSGLGC]PSFRHGGPSSGAPPPS-NH2; disulfide linkage between the bracketed Cys

Target: T1, human NPRA (human, UniProt P16066 33-1061)
T1 sequence (looked up): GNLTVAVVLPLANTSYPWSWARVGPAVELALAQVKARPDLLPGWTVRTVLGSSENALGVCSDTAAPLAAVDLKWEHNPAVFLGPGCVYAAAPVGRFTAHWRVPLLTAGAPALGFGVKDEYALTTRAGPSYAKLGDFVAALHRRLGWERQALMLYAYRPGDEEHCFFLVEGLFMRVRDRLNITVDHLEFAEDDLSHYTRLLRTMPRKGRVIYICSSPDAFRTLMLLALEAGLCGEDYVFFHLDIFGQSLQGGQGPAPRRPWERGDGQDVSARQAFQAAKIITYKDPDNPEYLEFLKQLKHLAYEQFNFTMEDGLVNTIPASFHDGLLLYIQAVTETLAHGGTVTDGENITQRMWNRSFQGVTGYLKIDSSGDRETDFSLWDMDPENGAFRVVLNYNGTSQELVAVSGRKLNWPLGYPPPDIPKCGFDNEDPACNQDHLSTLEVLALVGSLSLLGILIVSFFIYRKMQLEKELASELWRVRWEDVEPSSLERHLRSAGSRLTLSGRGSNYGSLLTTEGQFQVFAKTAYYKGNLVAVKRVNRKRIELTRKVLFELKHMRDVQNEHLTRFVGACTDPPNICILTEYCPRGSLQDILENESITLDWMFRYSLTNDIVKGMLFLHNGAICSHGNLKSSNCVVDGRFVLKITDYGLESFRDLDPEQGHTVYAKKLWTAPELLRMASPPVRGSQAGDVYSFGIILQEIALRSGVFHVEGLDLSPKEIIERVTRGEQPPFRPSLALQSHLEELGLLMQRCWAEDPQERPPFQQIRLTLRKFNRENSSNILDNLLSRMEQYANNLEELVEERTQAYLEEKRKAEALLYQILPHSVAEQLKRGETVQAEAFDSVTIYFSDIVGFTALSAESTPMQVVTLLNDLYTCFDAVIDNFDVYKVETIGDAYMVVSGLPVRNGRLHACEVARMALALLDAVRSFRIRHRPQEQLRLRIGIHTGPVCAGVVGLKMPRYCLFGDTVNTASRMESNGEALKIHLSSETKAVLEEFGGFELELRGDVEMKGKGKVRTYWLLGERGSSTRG
Assay: cell-based or functional assay

Binder | cGMP Assay (EC50, pM) w/Casein [pM] | cGMP Assay (EC50, pM) w/BSA [pM]
B1 | 720 | –
B2 | 1270 | –
B3 | – | 19700
B4 | 299 | –
B5 | 3490 | –
B6 | 118 | –
B7 | 118 | –
